Experiments:
[1] = Cytidine deaminase activity of the AID protein ([3H]deoxycytidine to deoxyuridine, TLC); format: biochemical; conditions: AID-GST fusion protein 2 to 600 ng, pH 7.5, 2 to 4 hours
Protocol: A cytidine deaminase activity of AID was measured by the same method as in the previous report (J Biol. Chem. 270:14768-14775, 1995).
The purified AID-GST fusion protein prepared in the above (2, 4, 6, 8, 10, 20, 40, 60, 100, 200, 300, 400, and 600 ng) was incubated in the buffer (pH 7.5, the total amount 10 μl) containing 45 mM Tris with 3.3 μCi [^3H] deoxycytidine (24.8 Ci/mmol, DuPont) and 250 μM cytidine for 2 to 4 hours. The reaction was terminated by adding deoxycytidine (2 μl of 10 μg/ml) and deoxyuridine (2 μl of 10 μg/ml). Insoluble substances were removed by centrifugation, and the reaction mixture (4 μl) was subjected to the polyethylene imine-cellulose thin layer chromatography plate (VWR). The plate was developed in isopropyl alcohol/10% HCl (7:2 v/v). The plate was exposed to ultraviolet light (254 nm) for visualization and bands corresponding to deoxycytidine and deoxyuridine were collected, and added to Ultima Gold scintillation solution to be quantified by liquid scintillation photometer (Packard)

[2] = tested on: AU-rich RNA (5-AU); experiment: Gel retardation assay, avidity to AU-rich RNA; format: binding
Text: Since the AID protein has a functional cytidine deaminase activity as well as a structural similarity to APOBEC-1, to examine RNA editing activity in the AID protein, avidity to AU-rich RNA (5-AU) and apoB RNA (which are RNA substrates for APOBEC-1) was examined.

B1: AID protein: activation-induced cytidine deaminase, novel mouse protein (SEQ ID NO:2), tested as purified GST fusion protein (protein)
chain: MDSLLMKQKKFLYHFKNVRWAKGRHETYLCYVVKRRDSATSCSLDFGHLRNKSGCHVELLFLRYISDWDLDPGRCYRVTWFTSWSPCYDCARHVAEFLRWNPNLSLRIFTARLYFCEDRKAEPEGLRRLHRAGVQIGIMTFKDYFYCWNTFVENRERTFKAWEGLHENSVRLTRQLRRILLPLYEVDDLRDAFRMLGF
modifications: left off: a dimerising Fc or GST
cytidine deaminase activity [1]: concentration-dependent cytidine deaminase activity | avidity to AU-rich RNA (5-AU) [2]: did not show avidity

From patent US7314621B2, “Cytidine deaminase” (Kyoto University, priority 1999, dated 2008)
